Experimental data as given in patent publication US20180334496A1 (KODIAK SCIENCES, published 2018).
Substitutions are numbered along the chain they refer to.

Biological target: T1, human Complement Factor D (CFD), purified from human serum (human, UniProt P00746 26-253)
T1 construct: serum purified (CompTech A136); also called serum purified CFD; hCFD-Comptech
Assay: SPR MX96, mAbs amine-coupled, CFD injected

T1 sequence (P00746 26-253): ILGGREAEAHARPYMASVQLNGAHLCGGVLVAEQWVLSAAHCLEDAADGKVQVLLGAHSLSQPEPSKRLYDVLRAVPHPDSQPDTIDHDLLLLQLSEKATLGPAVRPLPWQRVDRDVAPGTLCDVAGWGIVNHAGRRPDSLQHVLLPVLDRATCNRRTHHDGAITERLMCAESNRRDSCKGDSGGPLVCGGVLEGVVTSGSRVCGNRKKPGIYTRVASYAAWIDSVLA

B1: KCD135 (antibody, V domains shown)
VH: EVQLQQSGPELVKPGASVRMSCKASGYIFTDYSIHWVKQSHGKSLEWIGYINPNNGGTSYNQKFKGKATLTVNKSSTTAYMELRSLTSEDSAVYFCARDTTIVGDYWGQGTTLTVSS
VL: DIVMTQSQKFMSTSVGDRVSVTCKASQHVGTNVVWYQQKPGQSPKALIYSASYRYSGVPDRFSGSGSGTDFTLTISNVQSEDLAEYFCQQFNSYPLTFGGGTKLEIK
Kd: 21.2 nM

B2: KCD214 (antibody, V domains shown)
VH: EVQLQQSVAEFVRPGASVKLSCTASGFNIKNTYMHWVKQRPEQGLEWIGRIDPANGNTEYAPKFQGKATITADTSSNTAYLQLSSLTSEDTAIYYCALYDYDGYWGQGTTLTVSS
VL: EIVLTQSPALMAASPGEKVTITCRVSSSISSSSLHWYQQKSGTSPKPWIYGTSNLASGVPVRFSGSRSGTSYSLTISSMEAEDAATYYCQQWSDYPWTFGGGTKLEIK
Kd: 1.56 nM

B3: KCD208 (antibody, V domains shown)
VH: B2 VH with F11L, A24V, N57D, E59T, T78S, Q82H, S85R, A97S
VL: B2 VL with R24S, Q38R, N54H, R67G, S93D, D94T
Kd: 2.55 nM

B4: KCD017 (antibody, V domains shown)
VH: DVQLQESGPDLVKPSQSLSLTCTVTDYSITSGYSWHWIRQFPGNKLEWLGYIHSSGNTNYNPSLKSRFSITRDTSKNQFFLQLNSVTSEDTATYYCALHYYGSSFGWYFDVWGAGTTVTVSS
VL: DIVMTQSHKFMSTSVGDRVYITCKASQDVGTAVAWYQQTSGQSPKLLIYWASTRHTGVPDRFTGSGSGTDFTLTLSNVQSEDLADYFCQQYTSYPLTFGAGTKLELK
Kd: 7.85 nM

B5: KCD070 (antibody, V domains shown)
VH: EIQLQQTGPELVKPGASVKISCKASGYSFTDYIILWVKQSHGKSLEWIGNINPYYDYTSYNLKFKGKATLTVDKSSSTAYMQLNSLTSEDSAVYYCARSDGYYGGDYWGQGTSVTVSS
VL: B4 VL with Y20S, T39K, S40P, L75I, S76N, T92S, L96W, A100G, K103T, L106I
Kd: 3.83 nM

B6: KCD004 (antibody, V domains shown)
VH: EVQLQQSGAELVRPGSSVKMSCKTSGKTFTSHGINWVKQRPGQGLEWIGYIYIGNGYNEYNEKFKGKATLTSDTSSSTAYMQLSSLTFEDSAIYFCVRKAYGNYGFDDWGQGTTLTVSS
VL: DIQMTQSPTSLSASLGESVSLTCRASQEISGYLNWLQQKPDGSIKRLIYAASTLDSGVPKRFSGSRSGSDYSLTISSLESEDFADYYCLQYANYPFTFGSGTKLEVK
notes: also called OG2063
Kd: 0.353 nM

B7: KCD205 (antibody, V domains shown)
VH: B6 VH with K27N, F88S
VL: B6 VL with T9S, S18R, N34S, S43T, R66S, E81D, N93S, V106I
Kd: 2.98 nM

B8: KCD126 (antibody, V domains shown)
VH: B6 VH
VL: B6 VL with Y32N
Kd: 0.34 nM

B9: KCD125 (antibody, V domains shown)
VH: B6 VH with K27N, H32Y, N55T, N58T, F88S, D108Y
VL: B6 VL with T9S, S18R, N34S, S43T, N93S, V106I
Kd: 3.75 nM

B10: KCD065 (antibody, V domains shown)
VH: QVQLQQSGAELARPGASVKMSCKASGYTFTTYTIHWVKQRPGQGLEWIGYINPSSDFTNYNQNFADKATLTADRSSSTAYMQLSSLTSEESAVYYCAIRLGYDRQGWYFDVWGAGTTVTVSS
VL: DIVMTQSHKFLSTSLGDRVSITCKASQDVGSAVAWYQQKPGQSPDLLIYWTFTRHTGVPDRFTGSRSGTDFTLTISNVQSGDLADYFCQQYSNYPLTFGGGTKLEIK
Kd: 3.28 nM

B11: KCD018 (antibody, V domains shown)
VH: QVQLQQSAAELARPGASVKMSCKASGYTFTSYTVHWVKQRPGQGLEWIGYINPSSGFTDYNQKFKDKTTLTADISSSTAYIQLSSLTSEDSAVYYCARRGVNWSWFAYWGQGTLVTVSA
VL: NIMMTQSPSSLAVSAGEKVTMSCKSSQSVLYSSNQKNYLAWYQQKPGQSPQLLIYWASTRESGVPERFTGSGSGTDFTLTISSVQAEDLAVYYCHQYLSSWTFGGGTKLEIK
Kd: 40.8 nM

B12: KCD019 (antibody, V domains shown)
VH: QVQLQQSGAELARPGASVKMSCKASGYTFATYTIHWVKQRPGQGLEWIGYLNLRNDYTHYNQKFRDKAALTADKSSSTAYMQLSSLTSEDSAVYNCAFRLGNDRQGWYFDVWGAGTTVTVSS
VL: DIVMTQAHRFMSTSVGDRVIISCKASQDVGTAVAWYQQTPGQSPKILIYWTSTRHTGVPDRFTGSRSGTDFTLTISNVQSEDLADYFCQQYTTYPLTFGGGTKLEIK
Kd: 7.24 nM

B13: KCD114 (antibody, V domains shown)
VH: EVQLQQSGPELVKPGASVKISCKASGYSFTAYYMNWVKQSPEKSLEWIGDINPSTGGTTYNQNFKAKATLTVDKSSSTAYMHLKSLTSEDSAVYYCATTYYSGNSYVGFAYWGQGTLVTVSA
VL: DIVMTQSHKFMSTSVGDRVSITCKASQDVSTAVAWYQQKPGQSPKLLIFWASTRHTGVPDRFTGSGSGTDYTLTISSVQAEDLALYYCQQHYSTPWTFGGGTKLEIK
Kd: 8.06 nM

B14: KCD008 (antibody, V domains shown)
VH: EVQLQQSGPELVKAGASVKMSCTASGFNIKDTYMHWVKQRPEQGLAWIGRIDPANGNIKYDPKFQGKATITADTSSNTAYLQLSSLTSDDTAVYYCTSAMDYWGQGTSVTVSS
VL: QIVLTQSPEIMSASPGEKVTMTCSARSSVSYMYWYQQKPGSSPRLLIYDTSNLASGVPVRFSGSGSGTSYSLTISRMETEDAATYYCQQWSTYPFTFGSGTKLEIK
Kd: 4.38 nM

B15: KCD047 (antibody, V domains shown)
VH: EVQLQQSGAEFVKPGASVRLSCTASGFNIKDTYMHWVKQRPEQGLEWIGRIDPANGYTKDDPKFQGKATITADTSSNTAYLQLSSLTSEDTAVYYCASAMDYWGQGTSVTVSS
VL: B14 VL with E9A, I10V, T20A, R26S, S30T, T79A, T96P
Kd: 4.37 nM

B16: KCD040 (antibody, V domains shown)
VH: EVQLQQSGAELVKPGASVKLSCTASDFNIKDTYMHWVMQRPEQGLEWIGKIDPANGNTEFDPKFQGKATITADTSSNTAYLQLTSLTSEDTAVYYCTRAMDYWGQGTSVTVSS
VL: B14 VL with E9A, R26G, L45V, T79A, T92N, F95Y, S99G
Kd: 1.93 nM

B17: KCD013 (antibody, V domains shown)
VH: B15 VH with F11L, R19K, N28K, Q39E, E42D, Y57N, D60Y, S98N
VL: B14 VL with V3I, E9A, R26S, Y31N, T68A, T79A, T92S, F95W, S99G
Kd: 7.32 nM

B18: KCD133 (antibody, V domains shown)
VH: EVQLVESGGGLLQPKGSLKLSCAASGFTFNTYAMNWVRQAPGKGLEWVARIRSKSSNYATYYADSVKDRFTISRDDSQSMFYLEMNNLKTEDTAMYYCVRDRGYYYVMDYWGQGTSVTVSS
VL: DIVLTQSPASLAVSLGQRATISCRASESVEYYGTSLMQWYQQKPGQPPKLLINAASNVESGVPARFSGSGSGTDFSLNIHPVEEDDIAMYFCQQSRKVPWTFGGGTKLEIK
Kd: 11.5 nM

B19: KCD002 (antibody, V domains shown)
VH: EVKLVESEGGLVQPGSSMKLSCTASGFTFSDYYMAWVRQVPEKGLEWVGNINYDGSSTYYLDSLKSRFIISRDSAKNILYLQMSSLKSEDTATYFCARGEDFYLYAMDYWGQGTSVTVSS
VL: DIQMTQSPASLSASVGETVTITCRASENIHSYLAWYQQKQGKSPQLIVYNTKTLAEGVPSRFSGSGSGTQFSLKINSLQPEDFGSYYCQHHYGIPPTFGGGTKLEIK
Kd: 0.132 nM

B20: KCD030 (antibody, V domains shown)
VH: QVQLQQSGAELAKPGASVKMSCKASGYTFTNYWMHWVKQRPGQGLEWIGYINPSIGYTEYNQKFKDKATLTADKSSSTAYMQLSSLTSEDSAVFYCATFIYYAMDYWGQGTSVTVSS
VL: DIQMNQSPSSLSASLGDTITITCHASQNINVWLSWYQQKPGNIPKLLIYKASNLHTGVPSRFSGSGSGTGFTLTISSLQPEDIATYYCQQGQSYPYTFGGGTKLEIK
Kd: 4.17 nM

B21: KCD038 (antibody, V domains shown)
VH: EVQLQQSGPELVKPGTSMKISCKASGYSFADYTMNWVKQSHGKSLEWIGLINPYNGGTSYNQKFMGKATLTVDKSSSTAYMELLSLTSEDSAVYYCARWGTYSHNYDYAMDYWGQGTSVTVSS
VL: DVVMTQTPLSLPVSLGDQASISCRSSQSLVHSNGNTYLYWYFQKPGQSPKFLIYKVSNRFSGISDRFSGSGSGTDFTLKISRVEAEDLGVYFCSQSTHVPPFTFGSGTKLEIK
Kd: 37.2 nM

B22: KCD039 (antibody, V domains shown)
VH: B21 VH with L11M, T16A, M34L, A97T
VL: B21 VL with P12S, F42L, F51L, S64T
Kd: 52.5 nM

B23: KCD050 (antibody, V domains shown)
VH: QVQLKESGPGLVAPSQSLSITCTVSGFSLNSYGVQWVRQPPGQGLEWLVVIWRDGTITYNSALKSRLSINKDNSKSQVFLKMNSLQTDDTAMYYCGRTSHYGNFNYYVMDYWGQGTAVTVSS
VL: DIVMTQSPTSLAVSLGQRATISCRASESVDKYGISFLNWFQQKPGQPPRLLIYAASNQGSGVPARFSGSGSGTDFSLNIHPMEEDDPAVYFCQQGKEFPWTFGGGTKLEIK
Kd: 1.96 nM

B24: KCD052 (antibody, V domains shown)
VH: B23 VH with V49G, T56S, N70R, F104Y
VL: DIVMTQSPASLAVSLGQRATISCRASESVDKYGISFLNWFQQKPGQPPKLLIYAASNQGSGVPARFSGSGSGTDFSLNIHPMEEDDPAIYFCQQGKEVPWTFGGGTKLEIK
Kd: 3.07 nM

B25: KCD220 (antibody, V domains shown)
VH: QVQLQQSGAELMEPGASVKLSCKATGYTFTGYWIEWVKQRPGHGLEWIGETLPGSDSNNYNEKFKGKATFTADTSSNTAYMQLSSLTTEDSAIYYCARDYSNYWYFDVWGTGTTVTVSS
VL: DIQMTQTTSSLSASLGDRVTISCRASQDISNYLNWYQQKPDGTVKLLIYYTSNLHSGVPSRFSGSGSGTDYSLTISNLEQEDIATYFCQQDSKHRTFGGGTKLEIK
Kd: 0.0535 nM

B26: KCD230 (antibody, V domains shown)
VH: QVQLQQPGTELVKPGASVKLPCKASGYTFTSYWMQWVKQRPGQGLEWIGEIDPSDTYINYNQKFKGKATLTVDTSSTTAYMQLSSLTSEDSAVYYCARYTTIMASDYWGQGTTLTVSS
VL: DIQMTQTTSSLSVSLGDRVTISCRASQDITNYLNWYQQKPDGTVKLLIYFTSRLHSGVPSRFSGSGSGTDYSLTISNLEPEDIATYYCQQYSKLPWTFGGGTKLEIK
Kd: 2.48 nM
